Biological target: T1, ADAMTS13 (Homo sapiens, UniProt Q76LX8)
T1 construct: tissue Gen-Probe GTI Diagnostics (ATS-13 kit calibrators, controls and proficiency samples); George King Biomedical Inc. (FACT, A-FACT, B-FACT plasmas) ATS-13; host or cells: plasma
T1 sequence (Q76LX8 75-1427): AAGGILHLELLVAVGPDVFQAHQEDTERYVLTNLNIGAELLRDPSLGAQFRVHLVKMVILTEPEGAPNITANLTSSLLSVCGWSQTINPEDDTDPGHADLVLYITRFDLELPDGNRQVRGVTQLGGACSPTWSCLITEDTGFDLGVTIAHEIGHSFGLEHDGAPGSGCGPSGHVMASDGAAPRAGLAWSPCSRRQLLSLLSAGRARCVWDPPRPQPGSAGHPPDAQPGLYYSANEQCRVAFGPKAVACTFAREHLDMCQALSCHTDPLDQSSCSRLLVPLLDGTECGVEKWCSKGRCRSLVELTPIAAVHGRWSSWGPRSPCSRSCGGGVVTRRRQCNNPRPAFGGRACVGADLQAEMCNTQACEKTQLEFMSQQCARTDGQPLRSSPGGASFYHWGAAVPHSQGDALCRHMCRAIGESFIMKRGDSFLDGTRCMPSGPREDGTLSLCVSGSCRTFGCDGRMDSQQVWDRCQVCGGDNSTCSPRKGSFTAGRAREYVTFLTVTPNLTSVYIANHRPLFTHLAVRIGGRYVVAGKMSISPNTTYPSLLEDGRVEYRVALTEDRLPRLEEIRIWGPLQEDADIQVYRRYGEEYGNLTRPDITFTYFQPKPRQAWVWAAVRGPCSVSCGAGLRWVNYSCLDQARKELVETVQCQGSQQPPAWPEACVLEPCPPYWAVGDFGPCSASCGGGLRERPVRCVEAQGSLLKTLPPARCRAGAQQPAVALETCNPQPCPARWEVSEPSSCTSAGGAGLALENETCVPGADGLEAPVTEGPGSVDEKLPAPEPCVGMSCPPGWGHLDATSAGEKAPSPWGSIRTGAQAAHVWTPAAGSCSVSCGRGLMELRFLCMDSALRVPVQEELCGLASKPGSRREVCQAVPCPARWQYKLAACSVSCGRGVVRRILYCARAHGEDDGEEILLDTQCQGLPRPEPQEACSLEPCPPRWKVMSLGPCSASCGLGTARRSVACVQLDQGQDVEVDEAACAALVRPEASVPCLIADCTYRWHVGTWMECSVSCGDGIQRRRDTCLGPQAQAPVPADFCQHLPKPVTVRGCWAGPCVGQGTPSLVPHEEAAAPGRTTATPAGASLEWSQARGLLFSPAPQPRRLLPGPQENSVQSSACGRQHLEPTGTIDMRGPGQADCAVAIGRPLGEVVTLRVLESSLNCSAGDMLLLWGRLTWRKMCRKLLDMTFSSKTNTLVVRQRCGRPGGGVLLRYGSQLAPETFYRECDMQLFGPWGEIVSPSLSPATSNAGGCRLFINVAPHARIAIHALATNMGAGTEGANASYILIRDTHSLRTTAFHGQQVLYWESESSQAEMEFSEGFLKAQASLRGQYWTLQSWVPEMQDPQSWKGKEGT
Experiment: ADAMTS13 activity assay with fluorogenic (FRET) polypeptide substrate and diluted plasma samples
Format: biochemical
Procedure: The procedure in this example was performed substantially as described in Kokame, K., Y. Nobe, Y. Kokubo, A. Okayama, and T. Miyata. 2005. FRETS-VWF73, a first fluorogenic substrate for ADAMTS13 assay. Br. J. Haematol. 129:93-100, but using SEQ ID NO: 1 in place of the 73 amino acid substrate described therein. The FRETS-VWF73 substrate solution was dissolved in 25% dimethyl sulphoxide/water to prepare the 100 microM stock solution. The GTI FRET4 SEQ ID NO: 1 was dissolved in 100% DMSO. Both substrates were diluted to equal concentrations using ATS-13 substrate buffer (Gen-Probe GT1 Diagnostics, Inc., U.S.A., Cat#ATS-13).
Plasma samples were diluted according to the ATS-13 Direction Insert using ATS-13 specimen diluent (Gen-Probe GTI Diagnostics, Inc., U.S.A., Cat# ATS-13). The diluted plasma samples were mixed with the diluted substrate and the fluorescence was read at 0, 5, 10, 15, 20, 30, 45 minutes using a Biotek FLX800 at the appropriate excitation and emission wavelengths for each substrate.
The fluorophore-quencher pair in the SEQ ID NO: 1 polypeptide substrate is FAM-5/TQ 2^Tm (Ex 485±20; Em 528±20; AAT Bioquest, Inc. Sunnyvale, Calif. U.S.A.). The fluorophore and quencher pair of FRETS-VWF73 (Nma/Dnp) described in Kokame has been substituted with FAM-5 and TQ_2 respectively in GTI_FRET4 SEQ ID NO: 1. Furthermore, in the SEQ ID NO: 1 polypeptide the position of the fluorophore (FAM-5) and quencher (TQ_2) has been swapped relative to the position of the fluorophore and quencher of the FRETS-VWF73 construct. Therefore, for GTI_FRET4 SEQ ID NO: 1, attachment of the fluorophore (FAM-5) occurs by substituting asparagine with cystine at position 15. The quencher (TQ_2) was attached by substituting glutamine with lysine at position 4 (FIG. 2 and Table 4).
For this experiment, substrate concentration and fluorescence reader settings determined on the previous experiment are used. The specimens tested (listed in Table 3), include a panel of proficiency samples prepared for use with ATS-13 (Gen-Probe GTI Diagnostics, Inc., U.S.A., Cat# ATS-13) which included samples with normal or deficient ADAMTS13 activity levels. In addition, six Factor Assay ConTrol plasma were used (2 FACT, 2 A-FACT and 2 B-FACT, from George King Biomedical Inc., Kansas, USA). The assays for the SEQ ID NO: 1 substrate and for the prior art FRETS-VWF73 assay were performed generally as according to the procedure described in Example 1. Substrate is prepared according to the conditions used for initial testing of the substrate, which prepared the molar amount of SEQ ID NO: 1 polypeptide substrate used in the assay to be equivalent to the molar amount of FRETS-VWF73 used in the prior art. The […] assays were read at 0, 5, 10, 15, 20, 30, 45 minutes.
Testing of substrate for cleavability by ADAMTS13 is determined as is generally described in Example 1. […]

## DREKAPNLVYMVTGCPASDEIKRLPGDIQVVPIEVIGWPNAPILIQDEETLPREAPDLVLQR [GTI_FRET4]
Sample Positive Control High, incubation 60 Minutes
  % Normal ADAMTS13 Values Calculated Using GTI_FRET4 Substrate: 51 % Normal
Sample Positive Control High, incubation 75 Minutes
  % Normal ADAMTS13 Values Calculated Using GTI_FRET4 Substrate: 54 % Normal
Sample Positive Control High, incubation 90 Minutes
  % Normal ADAMTS13 Values Calculated Using GTI_FRET4 Substrate: 55 % Normal
Sample Positive Control Low, 15 min
  Increase in Fluorescence Values (X minute - 0 minute Reading): 2,182 RFU
Sample Positive Control Low, 30 min
  Increase in Fluorescence Values (X minute - 0 minute Reading): 3,902 RFU
Sample Positive Control Low, 45 min
  Increase in Fluorescence Values (X minute - 0 minute Reading): 5,511 RFU
Sample Positive Control Low, 60 min
  Increase in Fluorescence Values (X minute - 0 minute Reading): 7,169 RFU
Sample Positive Control Low, 75 min
  Increase in Fluorescence Values (X minute - 0 minute Reading): 8,789 RFU
Sample Positive Control Low, 90 min
  Increase in Fluorescence Values (X minute - 0 minute Reading): 10,370 RFU
Sample Positive Control Low, incubation 15 Minutes
  % Normal ADAMTS13 Values Calculated Using GTI_FRET4 Substrate: 10 % Normal
Sample Positive Control Low, incubation 30 Minutes
  % Normal ADAMTS13 Values Calculated Using GTI_FRET4 Substrate: 10 % Normal
Sample Positive Control Low, incubation 45 Minutes
  % Normal ADAMTS13 Values Calculated Using GTI_FRET4 Substrate: 10 % Normal
Sample Positive Control Low, incubation 60 Minutes
  % Normal ADAMTS13 Values Calculated Using GTI_FRET4 Substrate: 10 % Normal
Sample Positive Control Low, incubation 75 Minutes
  % Normal ADAMTS13 Values Calculated Using GTI_FRET4 Substrate: 10 % Normal
Sample Positive Control Low, incubation 90 Minutes
  % Normal ADAMTS13 Values Calculated Using GTI_FRET4 Substrate: 9 % Normal
Sample UAMS041609, 15 min
  Increase in Fluorescence Values (X minute - 0 minute Reading): 3,876 RFU
Sample UAMS041609, 30 min
  Increase in Fluorescence Values (X minute - 0 minute Reading): 7,931 RFU
Sample UAMS041609, 45 min
  Increase in Fluorescence Values (X minute - 0 minute Reading): 11,692 RFU
Sample UAMS041609, 60 min
  Increase in Fluorescence Values (X minute - 0 minute Reading): 15,886 RFU
Sample UAMS041609, 75 min
  Increase in Fluorescence Values (X minute - 0 minute Reading): 19,867 RFU
Sample UAMS041609, 90 min
  Increase in Fluorescence Values (X minute - 0 minute Reading): 24,709 RFU
Sample UAMS041609, incubation 15 Minutes
  % Normal ADAMTS13 Values Calculated Using GTI_FRET4 Substrate: 19 % Normal
Sample UAMS041609, incubation 30 Minutes
  % Normal ADAMTS13 Values Calculated Using GTI_FRET4 Substrate: 22 % Normal
Sample UAMS041609, incubation 45 Minutes
  % Normal ADAMTS13 Values Calculated Using GTI_FRET4 Substrate: 23 % Normal
Sample UAMS041609, incubation 60 Minutes
  % Normal ADAMTS13 Values Calculated Using GTI_FRET4 Substrate: 24 % Normal
Sample UAMS041609, incubation 75 Minutes
  % Normal ADAMTS13 Values Calculated Using GTI_FRET4 Substrate: 26 % Normal
Sample UAMS041609, incubation 90 Minutes
  % Normal ADAMTS13 Values Calculated Using GTI_FRET4 Substrate: 27 % Normal
Sample VF, 15 min
  Increase in Fluorescence Values (X minute - 0 minute Reading): 1,292 RFU
Sample VF, 30 min
  Increase in Fluorescence Values (X minute - 0 minute Reading): 2,436 RFU
Sample VF, 45 min
  Increase in Fluorescence Values (X minute - 0 minute Reading): 3,552 RFU
Sample VF, 60 min
  Increase in Fluorescence Values (X minute - 0 minute Reading): 4,690 RFU
Sample VF, 75 min
  Increase in Fluorescence Values (X minute - 0 minute Reading): 5,784 RFU
Sample VF, 90 min
  Increase in Fluorescence Values (X minute - 0 minute Reading): 7,260 RFU
Sample VF, incubation 15 Minutes
  % Normal ADAMTS13 Values Calculated Using GTI_FRET4 Substrate: 5 % Normal
Sample VF, incubation 30 Minutes
  % Normal ADAMTS13 Values Calculated Using GTI_FRET4 Substrate: 6 % Normal
Sample VF, incubation 45 Minutes
  % Normal ADAMTS13 Values Calculated Using GTI_FRET4 Substrate: 6 % Normal
Sample VF, incubation 60 Minutes
  % Normal ADAMTS13 Values Calculated Using GTI_FRET4 Substrate: 6 % Normal
Sample VF, incubation 75 Minutes
  % Normal ADAMTS13 Values Calculated Using GTI_FRET4 Substrate: 5 % Normal
Sample VF, incubation 90 Minutes
  % Normal ADAMTS13 Values Calculated Using GTI_FRET4 Substrate: 6 % Normal
